B1: m4 endogenous MIPS target site (dsDNA)
DNA 1: GGTGAGGGAGCCGTAGTA
DNA 2: TACTACGGCTCCCTCACC
B2: Ap3 hairpin oligo (dsDNA)
DNA: GGTTACTTCTTCAACTCCATCGGGTTTTCCCGATGGAGTTGAAGAAGTAACC
B3: m12 hairpin oligo (dsDNA)
DNA: GGAGCCTCCTTCCTCCTCTCACTCGGGTTTTCCCGAGTGAGAGGAGGAAGGAGGCTCC

Columns and labels:
ZFPm4-VP64 = ZFPm4-VP64 (artificial); assay: cell_activity; endogenous MIPS in maize HE89 protoplasts; conditions: tags: VP64
Excerpt: A maize type II cell line HE89 was used to evaluate the ZFPmips-effector fusion constructs function (FIG. 22). Protoplasts from HE89 suspension cells were isolated and transformed using standard procedures (Chourey and Zurawski, 1981). The activation constructs pND3015, pND3023, pND3024, and pND3016 were transformed into freshly prepared protoplasts. The transcription level of MIPS gene was detected through quantitative PCR. With pND3016 (ZFPm4-VP64 activation constructs), at least 2-fold of activation is detected (FIG. 23). We also measured phytic acid concentration in maize tissues that were transformed by the activation construct of pND3016.

[1] = molecular target: ZFPm4 six-finger zinc finger protein (Sp1C framework) (artificial); assay: ELISA, 15.5 ug/ml protein, non-target; conditions: tags: MBP fusion (pMAL-C2), E. coli, hairpin
Experimental: (§1) Coat ELISA plates (Costar 3690) with streptavidin. Use 25 ul/well of 8 ug/ml streptavidin in PBS. Incubate at 37° C. for 1 hr. Wash 2× with dH2O. Bind wells with 25 ul/well of 4 ng/ul biotinylated target oligonucleotide in PBS. Incubate at 37° C. for 1 hr. Wash 2× with dH2O. Block with 175 ul/well of 3% BSA in Zn Buffer A. Incubate at 37° C. for 1 hr. Tap plates dry. Perform 1:2 serial dilutions of extract in Binding Buffer (1%BSA, 5 mM DTT, .12 ug/ul Salmon Sperm DNA in ZnBA). Usually from 1:4 to 1:512 for multi-target ELISA or 1:4 to 1:32 for screening clones for specific DNA binding activity. Incubate 1 hr at room temperature. Wash 8× with dH2O. Add primary antibody: 25 ul/well of 1:1000 dilution of mouse anti-MBP (Sigma M-6295) in 1%BSA ZnBA (no DTT). Incubate 30 min at room temperature. Wash 8× with dH2O. Add secondary antibody: 25 ul/well of 1:1000 dilution of goat anti-mouse/Alkaline Phosphatase (Pierce 31324) in 1%BSA ZnBA (no DTT). Incubate 30 min at room temperature. Wash 8× with dH2O. Develop with 25 ul developer (1 tablet of Sigma 104 Phosphatase Substrate (Sigma 104-105)/5 ml AP Developing Buffer [100 ml diethanolamine+0.05 g MgCl2+97.5 Sodium Azide, adjust to 500 ml with ddH2O, pH 9.88]). Incubate at room temperature for 5-60 min until color reaction is yellow. Read A405 with a plate reader.
(§2) To evaluate the specificity of new zinc finger protein, the affinity of each protein was determined for binding to the target sequence and several non-target sequences at appropriate protein concentration. For example, to protein ZFPm1 and ZFPm2, the non-target oligoes are: Oligo m34 (SEQ ID NO:20), Oligo Ap3 (SEQ ID NO:21), NRI-1 (SEQ ID NO:22), NRI-2 (SEQ ID NO:23), hHD-I (SEQ ID NO:24), hHD-II (SEQ ID NO:25), c5cl-g (SEQ ID NO:26), c5p3-g (SEQ ID NO:27), B3c2 (SEQ ID NO:28), and e2c-g (SEQ ID NO:29). Similarly, to protein ZFPm3 and ZFPm4, the non-target oligoes are Oligo m12 (SEQ ID NO:19), oligo Ap3 (SEQ ID NO:21), and the eight other oligoes. To protein ZFPAp3, the non-target oligoes are Oligo m12, oligo m34 (SEQ ID NO:20), and the eight other oligoes. The affinity reading for target oligo was further normalized to the no oligo control which has the least affinity.

[2] = molecular target: T1, ZFPm2 six-finger zinc finger protein (Sp1C framework) (artificial); assay: ELISA, 15.5 ug/ml protein, non-target; conditions: tags: MBP fusion (pMAL-C2), E. coli, hairpin
Experimental: as §1, §2

[3] = molecular target: ZFPm3 six-finger zinc finger protein (Sp1C framework) (artificial); assay: ELISA, 1.9 ug/ml protein, non-target; conditions: tags: MBP fusion (pMAL-C2), E. coli, hairpin
Experimental: as §1, §2

[4] = molecular target: T2, ZFPAp3 six-finger zinc finger protein (Sp1C framework) (artificial); assay: ELISA, 31.0 ug/ml protein, non-target; conditions: tags: MBP fusion (pMAL-C2), E. coli, hairpin
Experimental: as §1, §2

[5] = molecular target: T3, ZFPm1 six-finger zinc finger protein (Sp1C framework) (artificial); assay: ELISA, 31.0 ug/ml protein, non-target; conditions: tags: MBP fusion (pMAL-C2), E. coli, hairpin
Experimental: as §1, §2

[6] = molecular target: T2, ZFPAp3 six-finger zinc finger protein …; assay: EMSA; Zn Buffer A, 10% glycerol, 0.8% BSA, salmon sperm DNA, room temp; conditions: tags: MBP fusion (pMAL-C2), E. coli; label: 5'-biotin (ELISA); 32P (gel shift); hairpin
Experimental: (§3) The affinity of the purified six-finger proteins was measured using gel shift assay. The target oligos used in the ELISA assays were radioactively labeled using [γ32P]-ddATPk and terminal transferase. Ten serial dilutions of 1:3 with the purified protein (starting with ˜1 mg/ml) in binding buffer (1 pM labeled oligo, 10% Glycerol, 0.8% BSA, 0.1 ug/ul salmon sperm DNA in Zn Buffer A) were performed. The ZFP was allowed to bind at room temperature for 1 hr. The samples were then run on 5-6% non-denaturing PAGE gel in TBE. The gel was dried and exposed with Phosphoimager. The affinity (Kd) of the ZFP was calculated from this gel. The Kd value is the concentration of the protein at which half of the labeled oligo is shifted to a higher molecular weight on the gel by binding to the ZFP. […] Most of these affinities compare favorably with the existed 6 finger proteins.

[7] = molecular target: T2, ZFPAp3 six-finger zinc finger protein …; assay: ELISA, 31.0 ug/ml protein; conditions: tags: MBP fusion (pMAL-C2), E. coli; label: 5'-biotin (ELISA); 32P (gel shift); hairpin
Experimental: as §1, with “Develop with 25 ul developer (1 tablet of Sigma 104 Phosphatase Substrate (Sigma 104-105)/5 ml AP Developing Buffer [100 ml diethanolamine+0.05 g MgCl2+97.5 Sodium Azide, adjust to 500 ml with ddH2O, pH 9.88]). Incubate at room temperature for 5-60 min until color reaction is yellow.” left out
(§4) To evaluate the specificity of new zinc finger protein, the affinity of each protein was determined for binding to the target sequence and several non-target sequences at appropriate protein concentration. […] The affinity reading for target oligo was further normalized to the no oligo control which has the least affinity.

[8] = molecular target: T1, ZFPm2 six-finger zinc finger protein …; assay: ELISA, 15.5 ug/ml protein; conditions: tags: MBP fusion (pMAL-C2), E. coli; label: 5'-biotin (ELISA); 32P (gel shift); hairpin
Experimental: as §1, with “Develop with 25 ul developer (1 tablet of Sigma 104 Phosphatase Substrate (Sigma 104-105)/5 ml AP Developing Buffer [100 ml diethanolamine+0.05 g MgCl2+97.5 Sodium Azide, adjust to 500 ml with ddH2O, pH 9.88]). Incubate at room temperature for 5-60 min until color reaction is yellow.” left out
as §4

[9] = molecular target: T3, ZFPm1 six-finger zinc finger protein …; assay: EMSA; Zn Buffer A, 10% glycerol, 0.8% BSA, salmon sperm DNA, room temp; conditions: tags: MBP fusion (pMAL-C2), E. coli; label: 5'-biotin (ELISA); 32P (gel shift); hairpin
Experimental: as §3

[10] = molecular target: T1, ZFPm2 six-finger zinc finger protein …; assay: as above; conditions: tags: MBP fusion (pMAL-C2), E. coli; label: 5'-biotin (ELISA); 32P (gel shift); hairpin
Experimental: as §3

[11] = molecular target: T3, ZFPm1 six-finger zinc finger protein …; assay: ELISA, 31.0 ug/ml protein; conditions: tags: MBP fusion (pMAL-C2), E. coli; label: 5'-biotin (ELISA); 32P (gel shift); hairpin
Experimental: as §1, with “Develop with 25 ul developer (1 tablet of Sigma 104 Phosphatase Substrate (Sigma 104-105)/5 ml AP Developing Buffer [100 ml diethanolamine+0.05 g MgCl2+97.5 Sodium Azide, adjust to 500 ml with ddH2O, pH 9.88]). Incubate at room temperature for 5-60 min until color reaction is yellow.” left out
as §4

[12] = label: 5'-biotin (ELISA), 32P (gel shift)

T3 sequence (chain, as listed by the source): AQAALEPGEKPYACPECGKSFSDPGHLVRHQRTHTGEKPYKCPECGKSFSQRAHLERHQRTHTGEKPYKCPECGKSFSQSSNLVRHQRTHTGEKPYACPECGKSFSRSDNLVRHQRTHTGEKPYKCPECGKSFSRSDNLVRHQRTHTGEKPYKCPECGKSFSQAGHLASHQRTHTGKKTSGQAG
T1 sequence (chain, as listed by the source): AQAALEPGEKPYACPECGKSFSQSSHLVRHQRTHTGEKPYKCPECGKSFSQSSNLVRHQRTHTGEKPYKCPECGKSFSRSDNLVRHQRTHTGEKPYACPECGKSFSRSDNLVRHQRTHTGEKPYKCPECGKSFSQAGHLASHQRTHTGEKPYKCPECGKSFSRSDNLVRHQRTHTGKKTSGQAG
T2 sequence (chain, as listed by the source): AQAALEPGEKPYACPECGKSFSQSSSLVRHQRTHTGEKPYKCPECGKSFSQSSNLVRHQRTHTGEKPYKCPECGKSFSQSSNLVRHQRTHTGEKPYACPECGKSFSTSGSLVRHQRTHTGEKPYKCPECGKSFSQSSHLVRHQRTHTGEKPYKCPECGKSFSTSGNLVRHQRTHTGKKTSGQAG
ZFPm3 six-finger zinc finger protein (Sp1C framework) (artificial), sequence (chain, as listed by the source): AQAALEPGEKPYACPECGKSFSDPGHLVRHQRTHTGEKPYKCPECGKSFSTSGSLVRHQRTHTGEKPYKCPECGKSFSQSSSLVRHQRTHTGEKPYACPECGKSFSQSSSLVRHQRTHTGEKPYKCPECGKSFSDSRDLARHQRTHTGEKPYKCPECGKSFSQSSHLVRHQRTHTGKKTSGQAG

Binder	binding signal ([1]; label: 5'-biotin)	binding signal ([2]; label: 5'-biotin)	binding signal ([3]; label: 5'-biotin)	binding signal ([4]; label: 5'-biotin)	binding signal ([5]; label: 5'-biotin)	also measured
B1	–	–	–	–	–	activity (ZFPm4-VP64): ≥ 2 fold activation
GGACCCACCGCGTCCCCTCCGGGTTTTCCCGGAGGGGACGCGGTGGGTCC (dsDNA) [B3c2]	5 fold over no oligo	4 fold over no oligo	3 fold over no oligo	3 fold over no oligo	4 fold over no oligo	–
GGTGCGGCGACTGCAGCAGCGGGTTTTCCCGCTGCTGCAGTCGCCGCACC (dsDNA) [NRI-2]	3 fold over no oligo	2 fold over no oligo	6 fold over no oligo	4 fold over no oligo	4 fold over no oligo	–
B2	–	–	–	–	–	binding signal [1, 12]: 2 fold over no oligo; binding signal [2, 12]: 3 fold over no oligo; binding signal [3, 12]: 7 fold over no oligo; Kd [6]: 2.3 nM; binding signal [7]: 27 fold over no oligo; binding signal [5, 12]: 4 fold over no oligo
GGCTCTGCTCATCCCACTACGGGTTTTCCCGTAGTGGGATGAGCAGAGCC (dsDNA) [c5p3-g]	2 fold over no oligo	3 fold over no oligo	3 fold over no oligo	2 fold over no oligo	3 fold over no oligo	–
GGGGCAGCCCCCACGGCGCCGGGTTTTCCCGGCGCCGTGGGGGCTGCCCC (dsDNA) [hHD-II]	2 fold over no oligo	2 fold over no oligo	3 fold over no oligo	2 fold over no oligo	4 fold over no oligo	–
B3	–	–	–	–	–	binding signal [8]: 23 fold over no oligo; binding signal [1, 12]: 4 fold over no oligo; binding signal [3, 12]: 3 fold over no oligo; Kd [9]: 2 nM; Kd [10]: 7.5 nM; binding signal [11]: 18 fold over no oligo; binding signal [4, 12]: 14 fold over no oligo

Reference: US20030037355, “Methods and compositions to modulate expression in plants” (published 2003)
